Experimental data reported in patent US9957297B2, “Template-fixed peptidomimetics as inhibitors of FPR1” (POLYPHOR AG, priority 2011, dated 2018).
Bridges are numbered along the chain shown (N, C = ends). Primed or numbered codes have the meaning given here. [ ]: non-standard residue; d: D form. Phe(4-CF3) = N[C@@H](Cc1ccc(C(F)(F)F)cc1)C(=O)O; dPro(4S-NH2) = N[C@@H]1CN[C@@H](C(=O)O)C1; dTic = O=C(O)[C@H]1Cc2ccccc2CN1; dPip′ = not defined here; Dab = NCC[C@H](N)C(=O)O

T1: Formyl-Peptide Receptor 1 (UniProt P21462 1-350, limits assumed)
T1 sequence (looked up): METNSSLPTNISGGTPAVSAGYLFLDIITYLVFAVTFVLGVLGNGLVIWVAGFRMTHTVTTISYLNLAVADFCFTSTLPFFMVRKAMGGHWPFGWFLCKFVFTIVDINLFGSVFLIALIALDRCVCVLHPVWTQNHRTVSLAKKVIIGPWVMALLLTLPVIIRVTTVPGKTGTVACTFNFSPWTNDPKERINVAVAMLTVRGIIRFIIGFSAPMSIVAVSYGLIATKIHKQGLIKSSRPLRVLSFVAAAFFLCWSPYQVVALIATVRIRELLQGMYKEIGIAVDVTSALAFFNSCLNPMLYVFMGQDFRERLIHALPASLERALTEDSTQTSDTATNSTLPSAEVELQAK

B1: cyclo(-Tyr-His-Lys-Cys-His-Gly-^DPro-Trp-Thr-Ile-Cys-Tyr-Glu-Lys-^DLys-Glu-) (peptide)
peptide: cyclo(YHKCHG[dP]WTICYEK[dK]E)
modifications: disulfide 4-11
SMILES: CC[C@H](C)[C@@H]1NC(=O)[C@H]([C@@H](C)O)NC(=O)[C@H](Cc2c[nH]c3ccccc23)NC(=O)[C@H]2CCCN2C(=O)CNC(=O)[C@H](Cc2c[nH]cn2)NC(=O)[C@@H]2CSSC[C@H](NC1=O)C(=O)N[C@@H](Cc1ccc(O)cc1)C(=O)N[C@@H](CCC(=O)O)C(=O)N[C@@H](CCCCN)C(=O)N[C@H](CCCCN)C(=O)N[C@@H](CCC(=O)O)C(=O)N[C@@H](Cc1ccc(O)cc1)C(=O)N[C@@H](Cc1c[nH]cn1)C(=O)N[C@@H](CCCCN)C(=O)N2
B2: cyclo(-Tyr-His-Lys-Cys-Trp-Gly-^DPro-Trp-Thr-Ile-Cys-Tyr-Glu-Lys-^DPro-Pro-) (peptide)
peptide: cyclo(YHKCWG[dP]WTICYEK[dP]P)
modifications: disulfide 4-11
SMILES: CC[C@H](C)[C@@H]1NC(=O)[C@H]([C@@H](C)O)NC(=O)[C@H](Cc2c[nH]c3ccccc23)NC(=O)[C@H]2CCCN2C(=O)CNC(=O)[C@H](Cc2c[nH]c3ccccc23)NC(=O)[C@@H]2CSSC[C@H](NC1=O)C(=O)N[C@@H](Cc1ccc(O)cc1)C(=O)N[C@@H](CCC(=O)O)C(=O)N[C@@H](CCCCN)C(=O)N1CCC[C@@H]1C(=O)N1CCC[C@H]1C(=O)N[C@@H](Cc1ccc(O)cc1)C(=O)N[C@@H](Cc1c[nH]cn1)C(=O)N[C@@H](CCCCN)C(=O)N2
B3: cyclo(-Tyr-His-Lys-Cys-His-Gly-^DPro-Trp-Thr-Ile-Cys-Tyr-Glu-Lys-^DTic-Pro-) (peptide)
peptide: cyclo(YHKCHG[dP]WTICYEK[dTic]P)
modifications: disulfide 4-11
SMILES: CC[C@H](C)[C@@H]1NC(=O)[C@H]([C@@H](C)O)NC(=O)[C@H](Cc2c[nH]c3ccccc23)NC(=O)[C@H]2CCCN2C(=O)CNC(=O)[C@H](Cc2c[nH]cn2)NC(=O)[C@@H]2CSSC[C@H](NC1=O)C(=O)N[C@@H](Cc1ccc(O)cc1)C(=O)N[C@@H](CCC(=O)O)C(=O)N[C@@H](CCCCN)C(=O)N1Cc3ccccc3C[C@@H]1C(=O)N1CCC[C@H]1C(=O)N[C@@H](Cc1ccc(O)cc1)C(=O)N[C@@H](Cc1c[nH]cn1)C(=O)N[C@@H](CCCCN)C(=O)N2
B4: cyclo(-Tyr-His-Lys-Cys-His-Gly-^DPro-Trp-Thr-Ile-Cys-Tyr-Glu-Lys-^DLys-Pro-) (peptide)
peptide: cyclo(YHKCHG[dP]WTICYEK[dK]P)
modifications: disulfide 4-11
SMILES: CC[C@H](C)[C@@H]1NC(=O)[C@H]([C@@H](C)O)NC(=O)[C@H](Cc2c[nH]c3ccccc23)NC(=O)[C@H]2CCCN2C(=O)CNC(=O)[C@H](Cc2c[nH]cn2)NC(=O)[C@@H]2CSSC[C@H](NC1=O)C(=O)N[C@@H](Cc1ccc(O)cc1)C(=O)N[C@@H](CCC(=O)O)C(=O)N[C@@H](CCCCN)C(=O)N[C@H](CCCCN)C(=O)N1CCC[C@H]1C(=O)N[C@@H](Cc1ccc(O)cc1)C(=O)N[C@@H](Cc1c[nH]cn1)C(=O)N[C@@H](CCCCN)C(=O)N2
B5: cyclo(-Tyr-His-Lys-Cys-Trp-Gly-^DPro-Trp-Thr-Ile-Cys-Tyr-Glu-Lys-^DAla-Pro-) (peptide)
peptide: cyclo(YHKCWG[dP]WTICYEK[dA]P)
modifications: disulfide 4-11
SMILES: CC[C@H](C)[C@@H]1NC(=O)[C@H]([C@@H](C)O)NC(=O)[C@H](Cc2c[nH]c3ccccc23)NC(=O)[C@H]2CCCN2C(=O)CNC(=O)[C@H](Cc2c[nH]c3ccccc23)NC(=O)[C@@H]2CSSC[C@H](NC1=O)C(=O)N[C@@H](Cc1ccc(O)cc1)C(=O)N[C@@H](CCC(=O)O)C(=O)N[C@@H](CCCCN)C(=O)N[C@H](C)C(=O)N1CCC[C@H]1C(=O)N[C@@H](Cc1ccc(O)cc1)C(=O)N[C@@H](Cc1c[nH]cn1)C(=O)N[C@@H](CCCCN)C(=O)N2
B6: cyclo(-Tyr-His-Lys-Cys-Trp-Gly-^DPro-Trp-Thr-Ile-Cys-Tyr-Glu-Lys-^DLys-Pro-) (peptide)
peptide: cyclo(YHKCWG[dP]WTICYEK[dK]P)
modifications: disulfide 4-11
SMILES: CC[C@H](C)[C@@H]1NC(=O)[C@H]([C@@H](C)O)NC(=O)[C@H](Cc2c[nH]c3ccccc23)NC(=O)[C@H]2CCCN2C(=O)CNC(=O)[C@H](Cc2c[nH]c3ccccc23)NC(=O)[C@@H]2CSSC[C@H](NC1=O)C(=O)N[C@@H](Cc1ccc(O)cc1)C(=O)N[C@@H](CCC(=O)O)C(=O)N[C@@H](CCCCN)C(=O)N[C@H](CCCCN)C(=O)N1CCC[C@H]1C(=O)N[C@@H](Cc1ccc(O)cc1)C(=O)N[C@@H](Cc1c[nH]cn1)C(=O)N[C@@H](CCCCN)C(=O)N2
B7: cyclo(-Tyr-His-Lys-Cys-His-Gly-^DPro-Trp-Thr-Ile-Cys-Tyr-Glu-Trp-^DPro-Pro-) (peptide)
peptide: cyclo(YHKCHG[dP]WTICYEW[dP]P)
modifications: disulfide 4-11
SMILES: CC[C@H](C)[C@@H]1NC(=O)[C@H]([C@@H](C)O)NC(=O)[C@H](Cc2c[nH]c3ccccc23)NC(=O)[C@H]2CCCN2C(=O)CNC(=O)[C@H](Cc2c[nH]cn2)NC(=O)[C@@H]2CSSC[C@H](NC1=O)C(=O)N[C@@H](Cc1ccc(O)cc1)C(=O)N[C@@H](CCC(=O)O)C(=O)N[C@@H](Cc1c[nH]c3ccccc13)C(=O)N1CCC[C@@H]1C(=O)N1CCC[C@H]1C(=O)N[C@@H](Cc1ccc(O)cc1)C(=O)N[C@@H](Cc1c[nH]cn1)C(=O)N[C@@H](CCCCN)C(=O)N2
B8: cyclo(-Tyr-His-Lys-Cys-Phe(4CF3)-Gly-^DPro-Trp-Thr-Ile-Cys-Tyr-Glu-Lys-^DPro-Pro-) (peptide)
peptide: cyclo(YHKC[Phe(4-CF3)]G[dP]WTICYEK[dP]P)
modifications: disulfide 4-11
SMILES: CC[C@H](C)[C@@H]1NC(=O)[C@H]([C@@H](C)O)NC(=O)[C@H](Cc2c[nH]c3ccccc23)NC(=O)[C@H]2CCCN2C(=O)CNC(=O)[C@H](Cc2ccc(C(F)(F)F)cc2)NC(=O)[C@@H]2CSSC[C@H](NC1=O)C(=O)N[C@@H](Cc1ccc(O)cc1)C(=O)N[C@@H](CCC(=O)O)C(=O)N[C@@H](CCCCN)C(=O)N1CCC[C@@H]1C(=O)N1CCC[C@H]1C(=O)N[C@@H](Cc1ccc(O)cc1)C(=O)N[C@@H](Cc1c[nH]cn1)C(=O)N[C@@H](CCCCN)C(=O)N2
B9: cyclo(-Tyr-His-Lys-Cys-Tyr-Gly-^DPro-Trp-Thr-Ile-Cys-Tyr-Glu-Lys-^DPro-Pro-) (peptide)
peptide: cyclo(YHKCYG[dP]WTICYEK[dP]P)
modifications: disulfide 4-11
SMILES: CC[C@H](C)[C@@H]1NC(=O)[C@H]([C@@H](C)O)NC(=O)[C@H](Cc2c[nH]c3ccccc23)NC(=O)[C@H]2CCCN2C(=O)CNC(=O)[C@H](Cc2ccc(O)cc2)NC(=O)[C@@H]2CSSC[C@H](NC1=O)C(=O)N[C@@H](Cc1ccc(O)cc1)C(=O)N[C@@H](CCC(=O)O)C(=O)N[C@@H](CCCCN)C(=O)N1CCC[C@@H]1C(=O)N1CCC[C@H]1C(=O)N[C@@H](Cc1ccc(O)cc1)C(=O)N[C@@H](Cc1c[nH]cn1)C(=O)N[C@@H](CCCCN)C(=O)N2

These binders were tested against T1, Formyl-Peptide Receptor 1 (assay: cell-based or functional assay).
cyclo(YHKCHG[dP]WTICYEK[dPro((4S)OH)]P) (disulfide 4-11) [cyclo(-Tyr-His-Lys-Cys-His-Gly-^DPro-Trp-Thr-Ile-Cys-Tyr-Glu-Lys-^DPro((4S)OH)-Pro-)] was tested, and the “β-Arrestin IC50” value was 39 nM. B1 was tested, and the “β-Arrestin IC50” value was 124 nM. For cyclo(YHKCHG[dP]WTICYEK[dPip′]P) (disulfide 4-11) [cyclo(-Tyr-His-Lys-Cys-His-Gly-^DPro-Trp-Thr-Ile-Cys-Tyr-Glu-Lys-^DPip-Pro-)], the “β-Arrestin IC50” value was 29 nM. In the case of B2, the “β-Arrestin IC50” value is reported as 54 nM. B3 was tested, and the “β-Arrestin IC50” value was 56 nM. For B4, the “β-Arrestin IC50” value was 385 nM. With B5 the “β-Arrestin IC50” value was 126 nM. For cyclo(YHKCWG[dP]WTICYE[Dab][dP]P) (disulfide 4-11) [cyclo(-Tyr-His-Lys-Cys-Trp-Gly-^DPro-Trp-Thr-Ile-Cys-Tyr-Glu-Dab-^DPro-Pro-)], the “β-Arrestin IC50” value was 53 nM. cyclo(YHKCHG[dP]WTICYEK[dPro(4S-NH2)]P) (disulfide 4-11) [cyclo(-Tyr-His-Lys-Cys-His-Gly-^DPro-Trp-Thr-Ile-Cys-Tyr-Glu-Lys-^DPro((4S)NH2)-Pro-)] was tested, and the “β-Arrestin IC50” value was 41 nM. B6 was tested, and the “β-Arrestin IC50” value was 126 nM. In the case of B7, the “β-Arrestin IC50” value is reported as 16 nM. B8 was tested, and the “β-Arrestin IC50” value was 172 nM. B9 was tested, and the “β-Arrestin IC50” value was 22 nM.
